We go through two molecules from patent US11505583B2, “Proteins for the treatment of epithelial barrier function disorders” (Second Genome, Inc., priority 2018, dated 2022).

The assay relates to C57BL/6 mice given 2.5% DSS in drinking water. Briefly: Therapeutic DSS model of inflammatory bowel disease, treatment after 7 days DSS (Example 5, Example 13B). Type of assay: in vivo, mouse. Conditions: Example 13B; for LBP in serum (ELISA): 50 nmole/kg i.p. b.i.d. for 4 days after 7 days DSS, FIG. 19B; for Colon length / Colon weight to length ratio: 50 nmole/kg, vs DSS+vehicle; for Colon length: FIG. 22B; for Colon weight to length ratio: p<0.01, FIG. 23B; for Body weight changes: 50 nmoles/kg, day 11, p<0.05, FIG. 20B. The procedure:
In this example, experiments were performed to study the effects of SG-11 in the DSS mouse model when the SG-11 protein is administered to the mice after DSS treatment for 7 days. This differs from the treatment regimen of Example 4 above in which mice were administered SG-11 protein shortly before treatment with DSS.
Eight-week-old male C57BL/6 mice were housed 5 animals per cage and given food and water ad libitum for seven days. Following a 7-day acclimation period, the mice were provided with drinking water containing 2.5% DSS for 7 days. Fresh 2.5% DSS water was prepared every 2 days during the 7 day DSS administration. For this therapeutic DSS study, SG-11 used to treat the animals was fused at its N-terminus to a FLAG Tag (DYKDDDDK; SEQ ID NO:32).
On day 7 normal drinking water was restored and i.p. treatments of 50 nmole/kg of SG-11 (1.3 mg/kg) or Gly2-GLP2 (0.2 mg/kg) were initiated. Treatments were administered twice a day (b.i.d.), with a morning and evening dose (every 8 and 16 hours) for six days.
Body weight was measured daily during the morning treatment. The colon tissue was then harvested and length was measured in centimeters and the tissue was weighed. Fecal material was flushed from the colon and residual PBS removed by gently running the colon tissue through a pair of forceps. The colon tissue was then weighed and colon weight to length ratio in mg/mm was determined. Following weight measurements proximal and distal colon tissue was banked for RNA and protein analysis and the remaining tissues was fixed in 10% neutral buffered formalin for histopathology. Statistical analysis was performed by a one-way ANOVA compared to DSS+vehicle for serum 4KDa-FITC translocation, serum LBP concentrations, colon length, and colon weight to length ratio, while a two-way ANOVA was performed for analysis of body weight. In all analysis, a Fisher's LSD test for multiple comparisons was used. Graphs represent data pooled from two experiments, and are plotted as mean±SEM.
Histopathology analysis was performed on proximal and distal colon tissues from the therapeutic DSS model described above. Proximal (FIG. 13A) and distal (FIG. 13B) colon scores (range 0-4) are presented and as well as the total score for the colon which represents the sum of proximal and distal colon scores (Range 0-8) (FIG. 13C). LMA=Loss of mucosal architecture, Edema=Edema, INF=Inflammation, TMI=Transmural inflammation, MH=Mucosal hyperplasia, DYS=Dysplasia. Graphs represent data pooled from two independent experiments, and are plotted as mean±SEM. Statistical analysis was performed by a one-way ANOVA compared to DSS+vehicle followed by a Fisher's LSD test for multiple comparisons.
In the second experiment (Example 13B), mice were provided with drinking water containing 2.5% DSS for 7 days. On day 7 normal drinking water was restored and i.p. treatments of 50 nmole/kg of SG-11 (SEQ ID NO:7) (1.3 mg/kg), SG-11V5 (SEQ ID NO:19) (1.3 mg/kg), or Gly2-GLP2 (0.2 mg/kg) were initiated. Treatments were administered twice a day (b.i.d.), with a morning and evening dose (every 8 and 16 hours) for 4 days. For both the prophylactic and therapeutic models fresh 2.5% DSS water was prepared every 2 days during the DSS administration.
At the end of each DSS model study, mice were fasted for 4 hours and then orally gavaged with 600 mg/kg 4KDa dextran labeled with fluorescein isothiocyanate (FITC) [4KDa-FITC]. One hour after the 4KDa-FITC gavage mice were euthanized, blood was collected and FITC signal was measured in serum. […] Data in both graphs are plotted as mean±SEM and each figure represent data from an individual experiment (n=10 per group).
Upon completion of the DSS models above, LBP levels were measured as an inflammation centric readout of barrier function following the protocol detailed in Example 5. Upon completion of both DSS models (Examples 13A and 13B) blood was collected and serum was isolated. […]

Residue numbers refer to the chain shown, from its start. Numbers in names are those of the source.

B1: SG-11 (SEQ ID NO:7): Recombinant SG-11 with N-terminal methionine, 233 amino acids, no N-terminal tag (protein)
chain: MLEGEESVVYVGKKGVIASLDVETLDQSYYDETELKSYVDAEVEDYTAEHGKNAVKVESLKVEDGVAKLKMKYKTPEDYTAFNGIELYQGKVVASLAAGYVYDGEFARVEEGKVVGAATKQDIYSEDDLKVAIIRANTDVKVDGEICYVSCQNVKLTGKDSVSIRDGYYLETGSVTASVDVTGQESVGTEQLSGTEQMEMTGEPVNADDTEQTEAAAGDGSFETDVYTFIVYK
Regarding B1, the “LBP in serum (ELISA)” value is recorded as “no reduction in LBP”, the Colon length entry is given as “significant increase in the colon length”, the “Colon weight to length ratio” value was “significantly improved colon weight to length ratios” and the Body weight changes result is “statistically improved body weight changes”.

B2: SG-11V5: SG-11 variant SEQ ID NO:19 comprising N53S, N83S, C147V, C151S with respect to SEQ ID NO:7 (protein)
chain: B1 chain with N53S, N83S, C147V, C151S
Consider B2, for which the “LBP in serum (ELISA)” value is recorded as “no reduction in LBP”, the Colon length result is listed as “significant increase in the colon length”, the “Colon weight to length ratio” value is given as “significantly improved colon weight to length ratios” and the Body weight changes entry is “statistically improved body weight changes”.
